Measurements: patent publication US20120122991A1, “METHOD FOR TREATING CANCER BY INCREASING AMP-ACTIVATED KINASE ACTIVITY” (Dana-Farber Cancer Institute, Inc., priority 2003, published 2012)

These molecules were tested against T1, MBP-AMPK (Rattus norvegicus, UniProt P54645) (assay: AMPK kinase activity on SAMS peptide after in vitro phosphorylation by LKB1). Conditions: in vitro phosphorylation of bacterial MBP-AMPK, SAMS peptide substrate.
T1 construct: MBP-AMPKa (1-312) bacterial fusion protein
T1 sequence (P54645 13-323): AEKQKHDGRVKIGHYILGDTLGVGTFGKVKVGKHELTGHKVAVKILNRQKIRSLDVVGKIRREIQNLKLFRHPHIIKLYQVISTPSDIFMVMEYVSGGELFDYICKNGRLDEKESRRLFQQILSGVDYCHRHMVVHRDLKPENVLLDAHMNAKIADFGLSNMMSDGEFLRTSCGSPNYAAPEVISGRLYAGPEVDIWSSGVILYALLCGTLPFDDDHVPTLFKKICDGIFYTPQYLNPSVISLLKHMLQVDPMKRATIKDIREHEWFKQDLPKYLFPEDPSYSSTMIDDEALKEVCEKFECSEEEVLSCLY
Format: biochemical
Method: FIG. 2a: Lineup of known LKB1 in vitro phosphorylation sites with sites of phosphorylation in human […] and its yeast homologue SNF1p. AMPKα1 Thr 172 (SEQ ID NO:1); SNF1p S.c. Thr 210 (SEQ ID NO:2); STRAD Thr 329 (SEQ ID NO:3); STRAD Thr 419 (SEQ ID NO:4); LKB1 auto Thr 185 (SEQ ID NO:5). FIG. 2b. HT1080 cells were transfected with wild-type or kinase dead (K78I) LKB1 with or without its coactivating protein STRAD. As indicated, LKB1 immunoprecipitations (IPs) were tested for their ability to transphosphorylate bacterial MBP-AMPKα in an in vitro kinase assay. Parallel in vitro kinase assays were performed using ^32P γ-ATP followed by autoradiography or cold ATP followed by immunoblotting for phospho-Thr172 AMPK and the indicated proteins. Wild-type LKB1 IPs were run in duplicate as shown. MBP-AMPK was also tested alone as indicated. Results are typical of 3 separate experiments. FIG. 2c: LKB1 phosphorylation of MBP-AMPK activates its kinase activity towards a peptide substrate (SAMS). LKB1 immunoprecipitates (as in FIG. 2a) were used to phosphorylate MBP-AMPK in vitro and then MBP-AMPK was removed and tested for its ability to trans-phosphorylate the SAMS peptide in the presence of ^32P γ-ATP. Results were performed in two separate experiments in triplicate. LKB1 alone was incapable of detectably phosphorylating the SAMS peptide, and equivalent levels of LKB1 and MBP-AMPK were used in each reaction (data not shown). Samples without LKB1, without SAMS peptide, or without MBP-AMPK all gave similar levels of background (data not shown).
Kinase Assays and Cellular Analysis: AMPK kinase activity was measured using the SAMS peptide as previously described (7). LKB1 phosphorylation of AMPK was carried out in kinase buffer (50 mM Tris pH 7.5, 10 mM MgCl2, 1 mM DTT, 100 μM ATP) for 20 mins at 30° C. For immunopreciptations of active LKB1 kinase, Flag-tagged LKB1 was co-transfected with an equimolar amount of STRAD expression plasmid into HT1080 cells and immunoprecipitated using M2-agarose (Sigma) 24 h post-transfection in NP40 lysis buffer26. […]

Row | Molecule | induced AMPK kinase activity
1 | wild-type LKB1: Flag-tagged wild-type LKB1 serine/threonine kinase immunoprecipitated from HT1080 cells (protein, left off: small tags and cut ends, Flag-tagged wild-type LKB1 serine/threonine kinase immunoprecipitated from HT1080 cells) MEVVDPQQLGMFTEGELMSVGMDTFIHRIDSTEVIYQPRRKRAKLIGKYLMGDLLGEGSYGKVKEVLDSETLCRRAVKILKKKKLRRIPNGEANVKKEIQLLRRLRHKNVIQLVDVLYNEEKQKMYMVMEYCVCGMQEMLDSVPEKRFPVCQAHGYFCQLIDGLEYLHSQGIVHKDIKPGNLLLTTGGTLKISDLGVAEALHPFAADDTCRTSQGSPAFQPPEIANGLDTFSGFKVDIWSAGVTLYNITTGLYPFEGDNIYKLFENIGKGSYAIPGDCGPPLSDLLKGMLEYEPAKRFSIRQIRQHSWFRKKHPPAEAPVPIPPSPDTKDRWRSMTVVPYLEDLHGADEDEDLFDIEDDIIYTQDFTVPGQVPEEEASHNGQRRGLPKAVCMNGTEAAQLSTKSRAEGRAPNPARKACSASSKIRRLSACKQQ | 27 fold
2 | STRAD-activated LKB1: wild-type LKB1 co-expressed with its coactivating protein STRAD, immunoprecipitated (protein, left off: small tags and cut ends) chain 1: MEVVDPQQLGMFTEGELMSVGMDTFIHRIDSTEVIYQPRRKRAKLIGKYLMGDLLGEGSYGKVKEVLDSETLCRRAVKILKKKKLRRIPNGEANVKKEIQLLRRLRHKNVIQLVDVLYNEEKQKMYMVMEYCVCGMQEMLDSVPEKRFPVCQAHGYFCQLIDGLEYLHSQGIVHKDIKPGNLLLTTGGTLKISDLGVAEALHPFAADDTCRTSQGSPAFQPPEIANGLDTFSGFKVDIWSAGVTLYNITTGLYPFEGDNIYKLFENIGKGSYAIPGDCGPPLSDLLKGMLEYEPAKRFSIRQIRQHSWFRKKHPPAEAPVPIPPSPDTKDRWRSMTVVPYLEDLHGADEDEDLFDIEDDIIYTQDFTVPGQVPEEEASHNGQRRGLPKAVCMNGTEAAQLSTKSRAEGRAPNPARKACSASSKIRRLSACKQQ chain 2: MSFLVSKPERIRRWVSEKFIVEGLRDLELFGEQPPGDTRRKTNDASSESIASFSKQEVMSSFLPEGGCYELLTVIGKGFEDLMTVNLARYKPTGEYVTVRRINLEACSNEMVTFLQGELHVSKLFNHPNIVPYRATFIADNELWVVTSFMAYGSAKDLICTHFMDGMNELAIAYILQGVLKALDYIHHMGYVHRSVKASHILISVDGKVYLSGLRSNLSMISHGQRQRVVHDFPKYSVKVLPWLSPEVLQQNLQGYDAKSDIYSVGITACELANGHVPFKDMPATQMLLEKLNGTVPCLLDTSTIPAEELTMSPSRSVANSGLSDSLTTSTPRPSNGDSPSHPYHRTFSPHFHHFVEQCLQRNPDARPSASTLLNHSFFKQIKRRASEALPELLRPVTPITNFEGSQSQDHSGIFGLVTNLEELEVDDWEF | 50 fold
3 | Kinase-inactive LKB1: kinase-dead LKB1 mutant, alone or coexpressed with STRAD (protein, left off: small tags and cut ends, kinase-dead LKB1 mutant, alone or coexpressed with STRAD) MEVVDPQQLGMFTEGELMSVGMDTFIHRIDSTEVIYQPRRKRAKLIGKYLMGDLLGEGSYGKVKEVLDSETLCRRAVIILKKKKLRRIPNGEANVKKEIQLLRRLRHKNVIQLVDVLYNEEKQKMYMVMEYCVCGMQEMLDSVPEKRFPVCQAHGYFCQLIDGLEYLHSQGIVHKDIKPGNLLLTTGGTLKISDLGVAEALHPFAADDTCRTSQGSPAFQPPEIANGLDTFSGFKVDIWSAGVTLYNITTGLYPFEGDNIYKLFENIGKGSYAIPGDCGPPLSDLLKGMLEYEPAKRFSIRQIRQHSWFRKKHPPAEAPVPIPPSPDTKDRWRSMTVVPYLEDLHGADEDEDLFDIEDDIIYTQDFTVPGQVPEEEASHNGQRRGLPKAVCMNGTEAAQLSTKSRAEGRAPNPARKACSASSKIRRLSACKQQ | unable to activate AMPK
